Experimental data reported in publication PMC4197836.
Like-named read-outs stand apart in the source and are kept apart here.

Legend:
Test in all cases: AlphaScreen or HTRF
[1] = biological target: His6-tagged MLV IN (Moloney Murine Leukemia Virus)
[2] = biological target: His6-tagged MLV IN (Moloney Murine Leukemia Virus); remark: listed apart in the source
[3] = biological target: GST-tagged mBRD4ET (aa 601-685) (mouse) (UniProt Q9ESU6)

Chain of His6-tagged MLV IN (Moloney Murine Leukemia Virus) (P03355 1331-1738 limits assumed): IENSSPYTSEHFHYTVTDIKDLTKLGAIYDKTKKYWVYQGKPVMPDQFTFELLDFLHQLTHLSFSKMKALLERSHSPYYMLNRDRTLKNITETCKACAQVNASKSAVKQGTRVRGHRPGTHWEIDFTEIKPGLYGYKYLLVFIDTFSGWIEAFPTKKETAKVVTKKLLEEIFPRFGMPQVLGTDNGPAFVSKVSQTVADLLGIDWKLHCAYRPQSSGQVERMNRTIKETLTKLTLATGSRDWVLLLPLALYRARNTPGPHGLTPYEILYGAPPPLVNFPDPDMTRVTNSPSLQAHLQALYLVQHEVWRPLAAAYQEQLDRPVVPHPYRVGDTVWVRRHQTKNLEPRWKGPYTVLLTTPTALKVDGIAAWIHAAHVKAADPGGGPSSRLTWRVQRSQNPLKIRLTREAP

GST-tagged mBRD4ET (aa 601-685) (from UniProt Q9ESU6 601-685) (domain or fragment)
Kd [1]: 8.56 nM
Kd [2]: 58.7 nM

GST-tagged mBRD4_(ETSEED) (aa 601-721) (from UniProt Q9ESU6 601-721) (domain or fragment)
Kd [1]: 58.7 nM
Kd [2]: 8.56 nM

His6-tagged MLV IN (enzyme)
Kd [3]: 56.7 nM

MBP-fused BRD2 ET domain (domain or fragment)
Kd [1]: 0.6 nM

MBP-fused BRD3 ET domain (domain or fragment)
Kd [1]: 0.97 nM

MBP-fused BRD4 ET domain (domain or fragment)
Kd [1]: 0.41 nM
